Laboratory results published in paper PMC3103603 (Immunity, 2011).

Biological target: T1, wild-type human B7-H2Ig fusion protein (human, UniProt O75144 19-256)
T1 sequence (looked up): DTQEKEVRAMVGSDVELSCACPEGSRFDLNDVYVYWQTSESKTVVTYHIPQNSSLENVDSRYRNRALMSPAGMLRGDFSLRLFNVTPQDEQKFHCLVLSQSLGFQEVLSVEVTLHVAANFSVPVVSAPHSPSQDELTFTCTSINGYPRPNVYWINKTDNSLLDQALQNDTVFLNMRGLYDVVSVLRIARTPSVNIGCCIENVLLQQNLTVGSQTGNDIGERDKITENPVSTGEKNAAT
Test: flow cytometry on cells

binding result: binds
B1: human ICOSIg fusion protein (Fc fusion, UniProt Q9Y6W8 21-140, looked up)
chain: EINGSANYEMFIFHNGGVQILCKYPDIVQQFKMQLLKGGQILCDLTKTKGSGNTVSIKSLKFCHSQLSNNSVSFFLYNLDHSHANYYFCNLSIFDPPPFKVTLTGGYLHIYESQLCCQLK
